{"source": "the nanobody polyreactivity screen of Harvey et al. (2022)"}
{"assay": "yeast display, Sf9 membrane polyspecificity reagent, FACS + sequencing; frameworks hold sequencing errors", "outline": "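In a synthetic yeast display library (Saccharomyces cerevisiae BJ5465), nanobody expression was induced with galactose for 36–48 hours. FACS gates were set low and high (top ~1%) using anti-HA fluorescence for expression and streptavidin fluorescence for binding of the Sf9 membrane reagent. Each polyreactivity label is drawn from the gate of origin.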"}
{"sequence": "QVQLVESGGGLVQAGGSLRLICAASVSTFRDHAMGWYRQAPAKERDLVAAIDIDSSTYYADSVKGRFTISLDNAKNSVYLHMNSLKPEDTAVYYCNKDASGGTTTEVDYWGQGTQVTVSS", "polyreactivity (PSR sort gate)": "low polyreactivity"}
{"sequence": "QVQLVESGGGLVQAGGSLRLICAATGLIFPLYDMGWYRQAAGKERELVAAITLGGGGTYYADSVKGRFTISRDNAKNTVYLQMNSLKPEDTAVYYCNADYDIAAQLRTYITFDYWGQGTQVTVSS", "polyreactivity (PSR sort gate)": "low polyreactivity"}
{"sequence": "QVQLVESGGGLVQAGGSLRLICASSGSILRYNTMVWYRQAPGKERELVAAITYRGGSTYYADSVKGRFTISRDNAKNTVYLQMNSLKPEDTAVYYCNAARWWKTPDDYWGQGNQVTVSS", "polyreactivity (PSR sort gate)": "high polyreactivity"}
{"sequence": "QVQLVESGGGLVQAGGSLRLICDASGFTFSPNAMGWYRQAPGKERELVAAIDWSGDRTYYADSVKGRFTISRDNAKNTVYLQMNSLKPEDTAVYYCNDVRRSPGDYSYYYWGQGTQVTVSS", "polyreactivity (PSR sort gate)": "low polyreactivity"}
{"sequence": "QVQLVESGGGLVQAGGSLRLICDASGSTFYRYAMGWYRQAPGKERELVAAISRSGGRTYYADSVKGRFTISRDNAKNTVYLQMNSLKPEDTADYYCAADVGPKQDATHDYWGQGTQLTVSS", "polyreactivity (PSR sort gate)": "high polyreactivity"}
{"sequence": "QVQLVESGGGLVQAGGSLRLICPASGRIFRYYAMGWYRQARGKERELVAGITTGGGSTYYADSVKGRFTISRDNAKNTVFLQMNSLKPEDTAVYYCAARYYTTYYCGQGTQVTVSS", "polyreactivity (PSR sort gate)": "high polyreactivity"}
{"sequence": "QVQLVESGGGLVQAGGSLRLICVASGRIFLTYAMGWYRQAPGKERELVAAISYSGASTYYADSVKGRFTISRDNAKNTVYLQMNSLKPEDTAVYYCAKDGTQYERQDPAYGYWGQGTQVTVSS", "polyreactivity (PSR sort gate)": "high polyreactivity"}
{"sequence": "QVQLVESGGGLVQAGGSLRLISAASGRTFWTNAMGWYRQAPGKEREFVAAISWRGASTFYADSVKGRFTISRDNAKNTVYLQMNSLKPEDTAVYYCAAQSRTRSFYGKYDSWGQGTQVTVSS", "polyreactivity (PSR sort gate)": "low polyreactivity"}
{"sequence": "QVQLVESGGGLVQAGGSLRLISAASGRTFYSYAMGWYRQATGKERELVASISSGGGTNYADSVKGRFTSSRDNAMNTVYLQMNSLKPEDTAVYYGAAKYWFFYPYDYWGQGTQVTVSS", "polyreactivity (PSR sort gate)": "low polyreactivity"}
{"sequence": "QVQLVESGGGLVQAGGSLRLISAASGSIFVGNAMGWYRQSPGKERELVAAISRSGGRTYYADSVKGRFTISRDNAKNTVYLQMNSLKPEDTAVYYCNAYGWEQRQMDSWGQGTQVTVSS", "polyreactivity (PSR sort gate)": "high polyreactivity"}
{"sequence": "QVQLVESGGGLVQAGGSLRLNCAASGITYTQYAMGWYRQAPGKERELVAAISKRGGRTYYADSVKGRFTISRDNAKNTVYLQMNCLIPEDTAVYYCATVPYGEVDYWGQGTQVTVSS", "polyreactivity (PSR sort gate)": "high polyreactivity"}
{"sequence": "QVQLVESGGGLVQAGGSLRLNCAASGSTFARNAMGWYRQAAGKERELVAAISGSGGSTYYADSVKGRFTISRDNAKNTVYLQMNSLKPEDTAVYYCAAARRYYAYRYDYWGQGTQVTVSS", "polyreactivity (PSR sort gate)": "high polyreactivity"}
{"sequence": "QVQLVESGGGLVQAGGSLRLNCAASGSTFPKYAMGWYRQAPGKERELVAAISWSGDSTYYADSVKGRFTISRDNAKNSVYLKMNRLKPEDTAFYYCAAYNFIHAGPWVYEYWGQCTQVTVSS", "polyreactivity (PSR sort gate)": "low polyreactivity"}
{"sequence": "QVQLVESGGGLVQAGGSLRLRCAASGFIFARYAMGWYRQAPGKERELVAAITWSGDSTYYAYSVKGRFTISRDNAKYTVYLQMNSLKPEDTAVYYCYPVSGYAKYDYWGQGTQVTVSS", "polyreactivity (PSR sort gate)": "low polyreactivity"}
{"sequence": "QVQLVESGGGLVQAGGSLRLRCAASGFIFARYAMGWYRQAPGKERELVASITCRGTSTRYADSVKGRFTISRDNAKNTVYLEMNSLKPEDTAVYYCNAARLSYSWVPSEMDFWGQGTQVTVSS", "polyreactivity (PSR sort gate)": "high polyreactivity"}
{"sequence": "QVQLVESGGGLVQAGGSLRLRCAASGFIFGPNAMGWYRQAPGKEREFDAAINWSGGTTYYADSVKGRFTISRDNAKNTVYLQMNSLKPEDTAVYYCAASLYSDVAAVATYGYYWGQGTQVTVSS", "polyreactivity (PSR sort gate)": "low polyreactivity"}
{"sequence": "QVQLVESGGGLVQAGGSLRLRCAASGFIFNYYALGWYRQAPGKERELVAAINSGGNTYYADSVKGRFTISRDNAKNPVYIKMNTLKPEDTAVYYCNRDPESVGYDYWGQGTQVTVSS", "polyreactivity (PSR sort gate)": "low polyreactivity"}
